Assay: soluble on expression in E. coli; label from the status in PepcDB or PDB records

Soluble on expression in E. coli, soluble:
EAPFTLKVNTLPLNFDKAEHHRKFQIHINVSYIGERPNSNMVIVDVKMVSGFIPVKPSVKKLQDQSNIQRTEVNTNHVLIYIEKLTNQTMGFSFAVEQDIPVKNLKPAPVKVYDYYETDEFAIEEYSAPFSSDS, AVPFVEDWDLVQTLGEGAYGEVQLAVNRVTEEAVAVKIVDMKRAVDCPENIKKEICINKMLNHENVVKFYGHRREGNIQYLFLEYCSGGELFDRIEPDIGMPEPDAQRFFHQLMAGVVYLHGIGITHRDIKPENLLLDERDNLKISDFGLATVFRYNNRERLLNKMCGTLPYVAPELLKRREFHAEPVDVWSCGIVLTAMLAGELPWDQPSDSCQEYSDWKEKKTYLNPWKKIDSAPLALLHKILVENPSARITIPDIKKDRWYNKPLKKG, GMATYNYPEFGAGLWHFANYIDRYAVDGYGPALSTIDQINAAKEVGELSYVDLPYPFTPGVTLSEVKDALKDAGLKAIGITPEIYLQKWSRGAFTNPDPAARAAAFELMHESAGIVRELGANYVKVWPGQDGWDYPFQVSHKNLWKLAVDGMRDLAGANPDVKFAIEYKPREPRVKMTWDSAARTLLGIEDIGLDNVGVLLDFGHALYGGESPADSAQLIIDRGRLFGMDVNDNLRGWDDDLVVGTVHMTEIFEFFYVLKINNWQGVWQLDQFPFRENHVEAAQLSIRFLKHIYRALDKLDIPALQAAQEAQNPLQAQRIVQDALLSSITVSE, GSLRPLSEVNQHSQLMAQLVEVIEDSFQMKVNKESVNYLRLIRHIRFTIERIKKEEPTKEPEKLMLLLKNEYPLCYNTAWKLIKILQQTLKKPVHEAEAVYLTLHLIPINQ, MRGVVFLHAFPYSPRMWEGEVALLKTRLPVLAPHYLGLSLGKAAEKVLGEMDEAGLEQAVFVGLSMGGYLVFELFRKAPERFLGTVLSSTRAGPDSEEAKRNRYALRERVLKDGVGFLPEALLPSHLGRTTQATKPEVVEKVRAIILEASPEAVAETLVALAERPDSTPLLSRMQVPALVLVGEEDTLTPPEEARRMWKALPDARMLILPETGHLANLENPKAFRTALLGFLAEFF, MGSSHHHHHHSSGLVPRGSMAGVDPFTGNSAYRSAASKTMNIYFPKKEAVTFDQANPTQILGKLKELNGTAPEEKKLTEDDLILLEKILSLICNSSSEKPTVQQLQILWKAINCPEDIVFPALDILRLSIKHPSVNENFCNEKEGAQFSSHLINLLNPKGKPANQLLALRTFCNCFVGQAGQKLMMSQRESLMSHAIELKSGSNKNIHIALATLALNYSVCFHKDHNIEGKAQCLSLISTILEVVQDLEATFRLLVALGTLISDDSNAVQLAKSLGVDSQIKKYSSVSEPAKVSECCRFILNLL, MATHVAIIGNGVGGFTTAQALRAEGFEGRISLIGDEPHLPYDRPSLSKAVLDGSLERPPILAEADWYGEARIDMLTGPEVTALDVQTRTISLDDGTTLSADAIVIATGSRARTMALPGSQLPGVVTLRTYGDVQVLRDSWTSATRLLIVGGGLIGCEVATTARKLGLSVTILEAGDELLVRVLGRRIGAWLRGLLTELGVQVELGTGVVGFSGEGQLEQVMASDGRSFVADSALICVGAEPADQLARQAGLACDRGVIVDHCGATLAKGVFAVGDVASWPLRAGGRRSLETYMNAQRQAAAVAAAILGKNVSAPQLPVSWTEIAGHRMQMAGDIEGPGDFVSRGMPGSGAALLFRLQERRIQAVVAVDAPRDFALATRLVEARAAIEPARLADLSNSMRDFVRANEGDLT, MQYKLILNGKTLKGETTTEAVDAATAEKVFKQYANDNGVDGEWTYDDATKTFTVTEGSMAGGAWGRLACYLEFLKKEELKEFQLLLANKAHSRSSSGETPAQPEKTSGMEVASYLVAQYGEQRAWDLALHTWEQMGLRSLCAQAQEGAGHSLEHHHHHH

Soluble on expression in E. coli, not soluble:
MKTNYHTHTTRCMHAVGDDEDYVRSAIKGGFQELGFSDHGPWKYHTDFVSDIRMLPEDLPEYIESIRALKEKYRNQISIKIGLEYEYFPEYIHWLKEIIKEYRLDYILFGNHHYHTDEKFPYFGHHTTNRDMLDLYEESTIEGMESGLFAYLAHPDLFMRSYPEFDKHCISVSRHICRAAARLHIPLEYNIGYVAINEARGITTYPCPQFWHIAANEGCTAIIGLDAHNNLDLENPTYYDRACQELNALKMPVIDTIPFLKY, MGSDKIHHHHHHMIEFAAITSVISKYAPQASQLIIKQAQKNEAVINILHELKLNPTQISDDIDTVYIYALIRYGVFKHEAILNLFREKEIKGCFWDAYSSNTPFKFVENAKKLLNQNSELKMQLINAKINFLAEIEEFGEAFIAVAKQTKSSKYQPYPDWNLDVYSKEFKALIFEKTRLFCGRDFVFKAIQKFFTTQAKGYFSIVGDAGMGKSAIAAKYVLAYKFPCYFNIFAEGRNKPEKFLASIRQQLIKRYSLQNADNTDLRTLLQKASEELKGQKLVIVVDALDEVEQEGNGNLLDLPQNLPNGVYFLLTRRLYNQETKRLTLSPDTPVYELDLTQGDYTALSQEDVKEYIELYLNNDSDLKNWINERHISEDSFTQEIAVKSENNFIYLRYLLPGISEGKYNDLNLKGLPQGLQDYYTTHWNRMGMDKESNEKKVKILYILVERGEPISINMITEILDEEEYEVKSVLNEWVEYVTPKVNVDEHKTYYSIYHRSFLEFLKSQDKLGKGRKLFREVNKSMANYMLKEMA, EHGWCGHLCPLGAAYGVIGRKSLLRVTAVRREDCTKCMDCFYVCPEPEVLRQPLKEGDRRVMVQNCISCGRCLDVCPEQVFEFKNRLNVKNID, MLLSPPTNCRFFCFLYFPKVSSSSWEEDGFDARTLLSTPTDSSGFSLYVFSVLFCFSNLL, MSLYDELKNEFKRVLLDRQLTEELAEECATAFTDTTQAGAYSHGINRFPRFIQQLEQGDIVPNAIPTKVLSLGSIEQWDAHQAIGNLTAKKMMDRAIELASQHGVGVIALRNANHWMRGGSYGWQAAEKGYIGICWTNALAVMPPWGAKECRIGTNPLIIAVPTTPITMVDMSCSMYSYGMLEVHRLAGRQTFVDAGFDDEGNLTRDPSIVEKNRRLLPMGFWKGSGLSIVLDMIATLLSNGESTVAVTEDKNDEYCVSQVFIAIEVDRLIDGKSKDEKLNRIMDYVKTAERSDPTQAVRLPGHEFTTILSDNQTNGIPVDERVWAKLKTLEGHHHHHH, MAHHHHHHMKENYMIRHLFKKYGLKCYNSMSKGLLSNIRNGNSIVLYEKNVNKNLMNLLYKKHYNTYKNRVFNSAMYNNTPSNYMNNPENNNMNHLQNNSNYKYENPNNYYQPKYNNNLNNETNENNTTYQYFSIFGSTAMCLIKPIFPDYITNKNKVTIYGKGGFQFVFMRKQSNSNKYDKNNKMNIFIKINSLSNVLSLNDVEKLKNPIIIKGSNNNYLTIDKHKEKKDHIVIKYKYQPSNSPENNFNDMNNMDTDINENMIINDVNDEKRNNFEELHVSFSFSEFLLFQKAANLLLPQLIGWAKQY, MPIPAPSPDARAVVTGASQNIGAALATELAARGHHLIVTARREDVLTELAARLADKYRVTVDVRPADLADPQERSKLADELAARPISILCANAGTATFGPIASLDLAGEKTQVQLNAVAVHDLTLAVLPGMIERKAGGILISGSAAGNSPIPYNATYAATKAFVNTFSESLRGELRGSGVHVTVLAPGPVRTELPDASEASLVEKLVPDFLWISTEHTARVSLNALERNKMRVVPGLTSKAMSVASQYAPRAIVAPIVGAFYKRLGGS, MGHHHHHHSHMSGRSVPHAHPATAEYEFANPSRLGEQRFGEGLLPEEILTPTLYHGYYVRPRAAPAGEGSRAGASELRLSEGKFQAFLDVSHFTPDEVTVRTVDNLLEVSARHPQRLDRHGFVSREFCRTYVLPADVDPWRVRAALSHDGILNLEAPRGGRHLDTEVNEVYISLLPAPPDPEEEEEAAIVEP, MGSDKIHHHHHHLRSNRVTQHPPLQLSLPVHLPDDETFTSYYPAAGNDELIGALKSAASGDGVQAIYLWGPVKSGRTHLIHAACARANELERRSFYIPLGIHASISTALLEGLEQFDLICIDDVDAVAGHPLWEEAIFDLYNRVAEQKRGSLIVSASASPMEAGFVLPDLVSRMHWGLTYQLQPMMDDEKLAALQRRAAMRGLQLPEDVGRFLLNRMARDLRTLFDVLDRLDKASMVHQRKLTIPFVKEMLRL, MQRKLNQSLLLAEAYFKRKFTMPEVNYELRGIKAGVAYLQKNEIKFNRTLLQENTDEFIRQVVPHELAHLIVYQMFGRVKPHGKEWQLVMNEIFKLPADTCHQFDIKNVQGKTFEYRCACQTHFLTIRRHNKIMKENIEYLCKKCRGKLVFVDDEELEHHHHHH, MSKVRVAGFSVSVDGFGAGPEQSLNDPLGKRGPEMFQWFFHTRTFRAMMGKDDGSTGIDEDYASRAMANFGAFILGRNMFGPIRGEWPDDAWKGWWGPNPPYHAPTYVLTHYPREPLVMEGGTTFHFVTGGIHQALDQAKAAAGDKDVKIGGGVATVRQYLQAGLIDELHFAVSPVVLGKGEAMFAGIDLPALDFRVTEHAASEKATHIVLAKLEHHHHHH, MSLGGLCPRCRGRGWCGRDRCPFLDALNEVRARLSSRNVDGYTVTAHVSWRGYPRVIAAPGVGEHRTPDEGGVLADLPYEEALKTRALTFRRYRGKRDVRNPPDLSDPEIESSISVRPVESTLQVRRRLSGASRTTPFIGPLVEGELELDGTPKVPRDLERYHEDDVKAEEAVVGLYRRGYDESYIARALSLGLLGRDRRMVPTRWSVAAVDSMVSEHLAREVRDLPVSSEYRVLSGEVFGNEMWVILRPEPLSYELVEAYEPGAPWSDRTRIAVLRDSEVKDCKEPRETGGAYFAARLAALEWCSELGKQHGITVIRIVRKEYSAPLGAWVIREAVRRAEEVFSTDDPREVWEFLREKLDDPVGEAALKVIKRGRQRTLDTFLEGHHHHHH, MADPNWAYAPPTNYYADHSIAKPIMISGGHPSQDQGHSPKSESFGQSVTTAFNGMVDNLVGSPSSSVQQRNYFTTTPFPISRSPNDRNDDKIMGNGSYGVPIPIPQDGVPQGTPDFQMTPFLQQGGHLIGGSPNGPVQVSGNWYSGGAGIFSTMQQADPSNGMPGMAAEFVNNENGMPGPNGMHQQAMISGSPPFPYQNMMNLTTSFGAMGLGPQQIQQRDPQMFQQPILHEPIQGMAQNGFGQQVFFTQMQNQQHPQGQAQQQLQQLAQQHQQQQNSQQFFGQGPNGMGNGGVMNDWSQRSFGMPQQQAQQNGLPPNFSQNPPRRRGPEDPNGQTPKTLQDIKNNVIEFAKDQHGSRFIQQKLERASLRDKAAIFTPVLENAEELMTDVFGNYVIQKFFEFGNNEQRNQLVGTIRGNVMKLALQMYGCRVIQKALEYVEEKYQHEILGEMEGQVLKCVKDQNGNHVIQKVIERVEPERLQFIIDAFTKNNSDNVYTLSVHPYGCRVIQRVLEYCNEEQKQPVLDALQIHLKQLVLDQYGNYVIQHVIEHGSPSDKEQIVQDVISDDLLKFAQHKFASNVIEKCLTFGGHAERNLIIDKVCGDPNDPSPPLLQMMKDPFANYVVQKMLDVADPQHRKKITLTIKPHIATLRKYNFGKHILLKLEKYFAKQAPANSSNSSSNDQIYEHSPFDIPLGADFSNHPF, YDKRIHRFRKGWNSLIPTHNKIQYAGNMGMFSFGTGWDYGKRDQWETDLFFGFIPKHDSHRAKMTMTLKQNYMPWSLELGKGFSTEPLACGIYFNTVFGHEFWVHEPSRYPEGYYGFSSKIRTHIFLGQRLTYDIDRERRFFAKSVTLFYELSTCDLLLISRVTNSYLRARDYLSLSFGLKFQWL

Source: the DeepSol protein solubility set
